Results reported in a protein production outcome set (Wang et al. 2014).

Assay: label from the status in PepcDB records

Row | Sequence | protein production
1 | MVDWSTLPKDLLDLISKSLESSFDLIQFRSVCSSWRSAAEPKSPLPTHHLPILPDNGGSLFPDSAVGFRLSQRSILLIKPHEPCIESDSFGWLIKVEEDLNVPRKVTLLDPLCDTRNSIPENFPRVLDMSKFKVRELGREFKLHYFNTVGDIVESLYLEKAVVKYLDCDGDYKFVLLTIHVSGKLAVFRSWDRAWTVINDMPSPYDDVMLFDGRFFAVDNNGRTVVVDYSSLKLTLVASPVFGGDKKFLIESCGEMLLVDMYLSLEAVEGDPGFVEEIFEHPAFYMNERTVKFKVYRFVEREESWVDVYDLEDKMLFLGDDSTFSASASDILPLCDGSSVFFNGNVFNGEDLGAMQDRDLGVFDFRSGKIELVQKLPEYAKLFWPPPPWITSHARAEDHIGETSSQS | failed
2 | MVEAIIFDMDGVLFDTEKYYYDRRASFLGQKGISIDHLPPSFFIGGNTKQVWENILRDEYDKWDVSTLQEEYNTYKQNNPLPYKELIFPDVLKVLNEVKSQGLNIGLASSSVKADIFRALEENRLQAFFDIVLSGEEFKESKPNPEIYLTALKQLNVQASRALIIEDSEKGIAAGVAADVEVWAIRDNLFGMDQSAAKGLLDSLTDVLDLI | not failed
3 | MVEAPPPELRILSAGDSSYSGSGWSRVPHVWLRDEIRLSGEPRVRQGKREGDRRFRGRGRDRGRWHLGCPRKALFSNLLGTVYRCGNLNFSRDGNSVISPVGNRVTVFDLKNNRSDTLPLATKYNIKCVGLSPDGRLAIIVDEGGAALLVSLVCRSVLHHFHFKGSVHSVSFSPDGRKFVITKGNIAQMYHAPGKKREFNAFVLDKTYFGPYDETTCIDWTDDSKCFVVGSKDMSTWVFGAERWDNLIYYALSGHKDAIVACFFESNSLDLYSLSQDGALCVWQCDTPPEGLRLKAPRGWKADILQREKEEEEEEDEEGEGNRETTIRGKAVPAEQERVGKVKYSRLAKYFLNKEGDFNNLTAAAYHKKTHLLVTGFASGIFHLHELPEFNLIHSLSISDQRVASVAINSSGDWIAFGCSGLGQLLVWEWQSESYVLKQQGHFNSMVALAYSPDGQYIVTGGDDGKVKVWNTLSGFCFVTLTEHSSGVTGVTFTATGHVIVTSSLDGTVRAYDLHRYRNFRTFTSPRPTQFSCVAVDSSGEIVSAGAQDSFEIFVWSMQTGRLLDVLSGHEGPISGLCFNPMKSILASASWDKTVRLWDMFDSWRTKETLSLTSDVLAVTYRPDGAELAVATLNSQITFWDPENAVQVGSIEGRHDLKTGRKELDKITAKHSAKGKAFTTVCYSADGQNILAGGMSKFVCLYHVREQILVKRFELSCNFSLDAMEEFLNRRKMTEFGNLALIDQDAGEENGVAIPLPGVRKGDMSSRHFKPEIRVTSLRFSPTGRCWAATSTEGLLIFSLDAQMLFDPFELDTSVTPGRIREALRQREFTRAILMAFRLNEKKLAQEALEAVPQNEIEVVSASLPELYVVKVLEFLAASFEESRHLEFYLIWTQKLLMSHGQRLKSRAGQLLPVVQFLQKGLQRHLDDISKLCDWNRYNIQYALAVSKQRGMKRTLEPVDTEEDTDASDEDSLHLLRAAEEEEEGMLV | failed
4 | MVEGVHCVPDSVELMPKQHDIPRARLRIVVHEGRNHEVRELVKNAGLEVHSLKRVRIGGFRLPSDLGLGKHVELKQSELKALGWKN | not failed
5 | MVESKNTELSQGTWLNKPKSVFQEAGKVTLETDEKTDFWRETFYGFTRDSGHFLGVETGSAFTAQVRVQGSYESLYDQAGIMVRIDDGHWLKAGIEISDGHAMLSSVLTNGKSDWSTAVYGGNARDFWLRVTVEKGVLRIQVSSDKKTWPLVRLAPFPTSDHYLVGPMACTPERGGLKVTFSEWSLTAPLGKALHDLS | failed
6 | MVETLPALEIGEDERLDLENLATGAFFPVKGFMTREEALSVAHEMRLPTGEVWTIPILLQFREKPRVGPGNTVALLHGGERVALLHVAEAYELDLEALARAVFGTDSETHPGVARLYGKGPYALAGRVEVLKPRPRTPLEKTPEEVRAFFRQRGWRKVVAFQTRNAPHRAHEYLIRLGLELADGVLVHPILGAKKPDDFPTEVIVEAYQALIRDFLPQERVAFFGLATPMRYAGPKEAVFHALVRKNFGATHFLVGRDHAGVGDFYDPYAAHRIFDRLPPLGIEIVKVGAVFHCPLCGGIASERTCPEGHREKRTAISMTKVRALLREGKAPPSELVRPELLPILRRGV | not failed
7 | MVFCGDDVATGVRDAITYCYRCKGRKVTLSDHEADDDNKPIGDFDYDHEVVVFEIRSRAMEKLRKKRRTGMEGLTYKFVKEYDIENEFCSVRSSFSECCMSDISIEGYMTAKTEFSRSSSLKGLELENQWKMHYVNEIKKGSVIQEFCHCQGWPFGLGRKAALLPPLPKSPAESWSWRKPTRVTPVPFV | failed
8 | MVFIMENTNKIASLELGRLLAMFAIIALHSQVFMTYLLMDDFPVFGNIFNQLTRFAVPFFFILSGYFIQPKLTHTPLKTIQSYCAPLFKIWIVWSVLSLALPFHWRKVAENGYLAERTGYWNWLTQNPLNALFEGGMVHLWFIPALIIAVSIIGLLIHFKKTTWLIPIAVILYVYGLAGGSYQTLTEVWTPFFTRNGPFFSTLMVVIGFELRRREITLSSTNALILLLVGFAIHFSEAYWLTQFDVPFNLHDFLIGTPLMGIGVFFLLLSKPQLGHHPITFTLSKHVLGIYVCHLLFVVVFLNITGMMGITLAMRDFVIVFGTATASTLFVLIMDKTPFRQMLFR | failed
9 | MVFSGPASPGLTLAPLRRGGIDPCYRVDAAGAIWRTSLMPSGPVTARITRAATDAADCQAWGEGADEFIDRLPALLGVDDDASDFAPAEPTIAKARRQVPHLRLGRTGRMLEALIPAIIEQRVYGLDAWRAWRALVTKFGTPAPGPAPDGMRVVPSAEVWRRIPSWEFHRANVDPGRARTIVMCAQRADSLERLTHERAAVTLRSLPGVGEWTAAETMQRVFGDADALSAGDYHLATLVGQALTGEPVDDAGMVELLEPMRPHRHRAVRLLEASGMFVYRRRGARQAIPKLRTLLEHHHHHH | failed
10 | MVFTLADSVSQVALGPSWLDPMELLSGSGPFGSFILPAMLAIVFIESGLLFPLLPGDSLLFTGGLLANQADPFAPLWLVLILCPIAAILGDQVGYWIGHKFHPRLVNRPDGRIFKQEYLKQTEDFFEKHGPVTIILCRFVPIVRTYAPLVAGMAGMRYRTFIIYNMIGGILWGSGVVALGAALGQFDFVRNNIDLIFLLIVFISVVPGLVGMARKLADGHKQANTEPQENPAVQTAPVKTQEAQEAPQN | failed
11 | MVGAIARWASLKIVMNPRQLTKTMNIQFLGNITTAILLAVVLQITLWPSAAQACTRILWNNNKLAVVVGRTMDWPESTEPELMVFPQGIKRNGGMLGDMLVVKDNPAQWTSKYGSVVTTVYGMGTVDGLNEKGLGMHMLYLTATDFGPRNPKKAGVQAGLWGQYLLDNAATVKEALALMNEIQPVMVALDDMKATVHLAIEDASGDSAILEYVEGKLVVHHGPEYRVMTNDPTYDQQLKFLETWDFTNATRQTPLPGNVDPKDRFVRASYYQMMLPEPKTEQEAIAGILAIARNTSVPFGAPNNIPGSLYNTEYRTAIDLTNRRYFFELTTSPNVIWVNLDQLNLAPGAPVLSLDPDNLDLSGNVTDKFTKVLKSPF | failed
12 | MVGIRKRKDFFEDFGSELFDNLEEMIEALLEEMGDSVPFVYGFSIIHRPGEDPELREFGNVPEYPQQEENFFPSETKEPLIDIFENENMVHVLAEFPEIEKEDILLHATGQHLEIKVLGLSEYTEDVDLPVRVDPKSAKASYKNGVLEVTFRRCSEESPVEIEINLEHHHHHH | not failed
13 | MVGIRKRKDFFEEFGSELFDNLEEMIEALLEDMGESVPFVYGFSIIRRPGEDPELREFGNISENSEDEENPFPSEIRDPLIDIFESEELIHVLAEIPEIEKEDLLLHATAQNLEIRILGASEYSQDIELPARVDPKSAKASYKNGVLEVTFKRCTEEMPVEIEIN | failed
14 | MVHASQLNSYSLAILKLCLFILDFVLLCFFLMLTDEEIDSDSELDEYMEQQIAALPQNEINPEEDDESDSDEMGLDEDDDSSDEEDVEAEAPLKVAPPSKKMPNGAFEIAKGGKKNKSSGGKKRCPFPCGPSCKK | failed
15 | MVIFIMKKRYICILPYSLSYGGVFIDCKEVIANYWNFRSSTYKNGINGFDEEERAVWKQIFENSLASGKRLKVLDVGTGTGFLALLFAEMGHEVSGIDLSEGMLEKARHNADNMGLEISLFHGDAENLPFEDCSFDLVVNKYLLWTLQEPASAVREWKRVLKPGGMIFAIDGNWFDPRPDRYIKRMLYGLAERFAKKNQYNLIFKKSYGPIRNSLPLYEKISPKNISFLFSETGLMNTEISPLLEVQKFQRNRHSFSRRIFENNSIFLISGQKNLEHHHHHH | failed
16 | MVIIDWSLSVDRTIPKPLRIILRGVGQVFFCCNAVTGLIFLMALYIGGVTAGLAATAGVFSSTIAAHLLGFPEKDIDAGLYGFNGTLVGPCLFLFLENSPQLWLYVVLASILSTIVLAALMRILQPCDIPASTAPFILTCWMFMAAVYAFDSFSRGPLLPTAGIPVEAANISMIPVEIGYMAAAKGISEVMFADSVVVGILFLAGIAIHSLRGAAMALAGAIVGIVIPVLLGMDKSLIEMGLYAFNPVLAMMAVGWAFLKPSGRSMGLAFLAGIFTVICQAGLTGFLTPLGLPVLTFPFVLVMWVFLLAASRSKYWEYLNQGK | failed
17 | MVIIGSKGCAKEILTALKWDNVEETVSLFDNINTDISDAYYDFPIIKSWNELEQHLKTDSKVIIGVGGGQRREVLARKIACLGGVLTTFISQKALVGGYDNTIEPGVVILSGATITCNVSIGQGTFINKSTVISHDVRIGRYCEVSPGAKVLGRAIIGDRTEIGANAVILPDVIVGADCKIGAGAVVTRNIDSHTTVAGVPARSITKSSNNAFKLKSKIRNLLYHIRIADFRKLREYNHYVFGKRKLMFLELLSHSWMYGASFENYYELQFFKKSRTECRQYLTSSLRHELTRQVNDPCEALVLKDKVRFSEVFEDILGRRVMTFDEIKRQMHDPYSISINEVVIKPIKGQAGQGIIFPMQNFTSLRQLHDYVISTVKKPDEYLYEERIIQHSALNKLNPSSLNTLRIVTYYDESINKVDVWSVVLRIGIKARTDNFATGGIAVLVDHRGVVCQPAIIKHPSGERFHIHPVSGEKITGCIIPYYDQAIALAKQAAMRIPKVRSIGWDVAITETGPYMLEGNDNWCMTLFQLPGGEGLRHLANSVCNMFSVYE | failed
18 | MVIIVSMKANGFFDEQSSLKKSKIGLNLVWMFSLGHIFLITLSNVLVQYPFDMMGFHTTWGAFTYPAIFILTDLTTRIATANKARKIIMLSMTPGLILSYLVASYIEAGNNLNESGLSVLHLMPLRIALACFIAYVVGQLLDVAVFQRYRNRPAWWLAPTLSAVAGNFIDTALFFTIAFYHCSNPFLSQNWPEIAMVDVFFKIMISLIAFVPVYGLVLSILGIKTTNKLMV | failed
19 | MVIRELNNNWQSHAFDGYEVNWTEQQQTVSCLHTLVYPLAQGQGLHVTGISWNSTGSVLACAYGRLDDGDWSTLKSYVCTWNLDRQGLNPQQPSVVVEVPSAVMCLAFHPTQPSHIAGGLYSGEVLVWDMSRPEDPLLWRTGLTDDTHTDPVYQVLWLPEPRHSHRFQVLSAATDGKVLLWRGSGAGQLRLTKGFALAVQQLPRSTKLKKPPRGETEVGVTSVAFSSFDSSLFVLGTEGGFPLKCSLASEVAALTRMPSSVPLRAPVQFTFSPHGGPVYSVSCSPFHRNLFLSAGTDGHVHLYSMLQAQPLTSLQLSHKYLFAVRWSPVRPLVFAAASGEGDVQLFDLQKSSQKPTVSITQTQDGSPVYCLEFNSQQTQLLAAGDAKGMVKVWQLSTAFTEQGPREVEDLDQLEAEITT | failed
20 | MVISLVIVAVTATEIFEIVELPFEKTLSAISVGSLFNFSVAVVSKSGYLGVFGLMALESTFIPVPSEVILPLSGYLVYIHTFTFAAIIADAIVASMVGSFIDYYLGLYIGRPIIVKILGFFYVKEDSLVKAENWIDRWGASSVFFARFIPGIRSLISIPAGMLKMKVWVFALMTFLGSVIWSTILVYIGFKAGPYWSSAVHSFSVILDQIIIDAIFAACLAYIGYFIYLKIKTRTKPSY | failed
